In US20020044944A1:

Assays:
[1] = target: human Fas ligand (human) (UniProt P48023); experiment: cell-based or functional assay
[2] = target: mouse Fas ligand (mouse) (UniProt P41047); experiment: cell-based or functional assay
UniProt P41047, sequence (P41047 whole entry): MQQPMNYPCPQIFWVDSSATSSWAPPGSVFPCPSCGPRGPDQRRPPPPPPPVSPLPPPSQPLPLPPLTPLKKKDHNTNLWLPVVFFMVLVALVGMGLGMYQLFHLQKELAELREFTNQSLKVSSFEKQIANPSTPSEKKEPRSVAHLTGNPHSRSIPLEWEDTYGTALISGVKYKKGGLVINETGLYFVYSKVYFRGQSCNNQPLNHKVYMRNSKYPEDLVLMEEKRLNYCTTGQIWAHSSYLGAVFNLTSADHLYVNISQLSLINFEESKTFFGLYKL

UniProt P48023, sequence (P48023 whole entry): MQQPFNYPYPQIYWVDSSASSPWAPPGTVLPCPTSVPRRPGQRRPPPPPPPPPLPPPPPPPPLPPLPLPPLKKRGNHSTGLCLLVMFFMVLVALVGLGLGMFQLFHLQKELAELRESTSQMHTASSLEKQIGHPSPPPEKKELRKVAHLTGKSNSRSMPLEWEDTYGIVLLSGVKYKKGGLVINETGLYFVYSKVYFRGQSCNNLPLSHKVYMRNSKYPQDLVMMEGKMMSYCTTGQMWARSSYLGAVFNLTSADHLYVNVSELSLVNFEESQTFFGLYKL

B1: shFas(nd29)-hinge (receptor)
chain: TQNLEGLHHDGQFCHKPCPPGERKARDCTVNGDEPDCVPCQEGKEYTDKAHFSSKCRRCRLCDEGHGLEVEINCTRTQNTKCRCKPNFFCNSTVCEHCDPCTKCEHGIIKECTLTSNTKCKEEGSRSNEPKSCDKTHTCPPCP
[1]
  specific cytotoxicity inhibition activity (51Cr release; 1A12 effector cells, WC8 target cells; FIG. 11) (times higher than hFas-Fc): 3 to 10
[2]
  specific cytotoxicity inhibition activity (51Cr release; FLm14 effector cells, W4 target cells; FIG. 12) (times higher than hFas-Fc): 3 to 10

B2: shFas(nd29)-hinge, higher molecular weight gel filtration fraction (fractions 1 and 2, seemed to correspond to a dimer) (receptor)
chain: TQNLEGLHHDGQFCHKPCPPGERKARDCTVNGDEPDCVPCQEGKEYTDKAHFSSKCRRCRLCDEGHGLEVEINCTRTQNTKCRCKPNFFCNSTVCEHCDPCTKCEHGIIKECTLTSNTKCKEEGSRSNEPKSCDKTHTCPPCP
[1]; scale: times stronger than the lower molecular weight fraction
  cytotoxicity inhibition activity by the assay described in Inventive Example 8: > 50
